Here are results for one molecule from US20250215403A1, “Compositions and Methods for Cardiac Tissue Regeneration” (Temple University - Of The Commonwealth System Of Higher …, priority 2022, published 2025).

Holding throughout (assay type): in vivo, mouse
Data set [1] in a line: HPLC measurements of oxidative stress (ROS, GSH/GSSG, NADPH, NADH) in heart post-MI. How it is done: ROS production in heart tissue was measured using HPLC for dihydroethidium (DHE) oxidation products (Magadum A., et al., Circulation. 2020, 141 (15): 1249-1265). Immediately after harvesting hearts, a 20 mg segment of heart tissue was cut into small pieces and incubated with DHE (100 μM) in PBS containing DTPA (100 μM) at 37° C. for 30 min. The sample was washed with PBS/DTPA, extracted with acetonitrile (500 μl) and briefly sonicated (3× 30 sec, 8W). After centrifugation (13,000×g, 10 min at 4° C.), the supernatant was collected and dried under vacuum, and pellets stored at −20° C. in the dark until analysis. Samples were resuspended in 120 μl PBS-DTPA and injected into the HPLC system. The superoxide-specific DHE oxidation product 2-hydroxyethidine (EOH) was quantified by comparison of the peak signal between samples and standard solutions under identical chromatographic conditions, and expressed as EOH/mg tissue.
The level of glutathione (GSH) in heart tissue was measured by an HPLC method with electrochemical detection, as previously described (Magadum A., et al., Circulation. 2020, 141 (15): 1249-1265). Heart samples were homogenized in a 100 mM acetate buffer (pH 5.4, containing 10 μM DTPA). A small aliquot was used to quantify total protein. The remaining sample was deproteinized with 10% TCA, centrifuged at 10,000×g for 5 min at 4° C., the supernatant filtered (0.45 μm) and stored at −80° C. Samples were injected onto a C18 column (Phenomenex C18, 3 μm, 150×4.6 mm) and eluted at 0.5 ml/min using an isocratic mobile phase solution (25 mM NaH2PO4, 1 mM 1-octane sulfonic acid, 6% acetonitrile, pH 2.6, H2O with phosphoric acid). GSH levels were quantified by comparison to standards subjected to the same HPLC conditions. Glutathione disulfide (GSSG) levels were indirectly determined by its enzymatic reduction with glutathione reductase (0.6 U/ml plus 0.2 mg/ml NADPH) for 30 min. The reaction was stopped by adding 5% TCA on ice. The GSH levels were normalized by the amount of protein. GSSG quantification was achieved by the difference between total reduced GSSG to total GSH in each sample.

In a further data set the test system is cardiomyocytes (CM). As to the kind of experiment: CM division lineage tracing in α-MHC-MADM mice post-MI. The procedure:
(§1) All animal procedures were performed under protocols approved by the Temple University Animal Care and Use Committee. Male and female C57BL6 mice were used. Different modRNAs (100 μg/heart) were injected directly into the myocardium in open chest surgery. Three to ten animals used for each experiment. For mice survival, C57BL6 mice (10-12-weeks-old) treated with Luc or PSAT1 modRNAs (n=10) post induction of MI and were followed for the indicated time. Deaths were monitored and documented over time. Tamoxifen-inducible CM-restricted MADM mice (α-MHC-MADM mice) mice were generated by crossing MADM mice (Jackson laboratory) to […].^Tg(Myh6-cre/Esr1*) 1Jmk/J (Cat no. 005657) mice to get α-MHC-MADM mice (Yuko, A. E., et al., 2021, Redox Biology, 47:102162). Tamoxifen (Sigma-Aldrich) was dissolved in sesame oil at 10 mg/ml as stock solution. To induce Cre activation, tamoxifen was administered to mice by intraperitoneal (IP) injection five times (48 h interval between administrations) at 40 mg/kg body weight for adult mice (Yuko, A. E., et al., 2021, Redox Biology, 47:102162). The tissues were harvested at mentioned time for analysis.
To analyze the cardiomyocyte division in vivo post-MI, cardiomyocyte specific mosaic analysis with double markers (MADM) mice, generated as described previously, were used (Yuko, A. E., et al., 2021, Redox Biology, 47:102162). The CM-specific transgenic mice were generated by crossing MADM mice (Jackson laboratory) to B6.FVB (129)-A1cf.^Tg(Myh6-cre/Esr1*) 1 Jmk/J (Cat no. 005657) mice to get α-MHC-MADM mice. In the MADM system, because of interchromosomal Cre-loxP recombination after S phase of the cell cycle, the daughter cells will get labeled (single colored) with either GFP (Green) or RFP (Red). The MADM single-labeling can only be attained by end of the cell cycle through cytokinesis. The inducible MADM system warrants temporal control of recombination and offers direct evidence for cell division. […]

Data set [2] in a line: Long-term survival of mice post-MI. The following applies: Luc vs PSAT1 modRNA. The procedure: as §1

B1: PSAT1 modRNA: modified mRNA with N1-methylpseudouridine, transcribed in vitro, encoding phosphoserine aminotransferase 1 (ORF SEQ ID NO: 1, RNA SEQ ID NO: 2) (nucleic acid)
chain: AUGGAAGCCACCAAGCAAGUGGUUAACUUUGGGCCCGGGCCUGCCAAGCUGCCACACUCGGUAUUGUUGGAGAUCCAGAAGCAGCUACUAGACUACAGAGGACUCGGCAUCAGUGUGCUCGAAAUGAGUCACAGGUCAUCAGAUUUUGCCAAGAUUAUUGGCAAUACAGAGAAUCUUGUGAGGGAAUUGCUAGCUGUUCCCAACAACUACAAGGUGAUCUUUGUACAAGGAGGUGGGUCUGGCCAGUUCAGUGCUGUCCCCUUAAAUCUGAUUGGCCUGAAAGCUGGAAGGAGUGCUGACUACGUGGUGACCGGAGCUUGGUCAGCUAAGGCUGCGGAAGAAGCCAAGAAGUUUGGAACGGUGAACAUUGUCCACCCUAAACUUGGAAGUUACACAAAAAUUCCAGACCCAAGCACCUGGAACCUCAACCCGGACGCCUCCUAUGUAUACUUCUGUGCAAACGAGACUGUGCACGGGGUGGAGUUUGACUUCGUACCUGACGUCAAGGGAGCGGUGCUGGUCUGUGACAUGUCCUCAAACUUCUUAUCCAGGCCGGUGGAUGUUUCCAAGUUUGGUGUGAUUUUCGCUGGUGCUCAGAAGAAUGUUGGCUCUGCCGGGGUGACGGUGGUGAUUGUCCGGGAUGACCUGCUGGGGUUCUCGCUCAGAGAGUGCCCAUCAGUCCUUGACUACAAAGUGCAGGCUGGGAACAACUCUUUGUAUAACACACCUCCGUGCUUCAGCAUCUACGUCAUGGGCAUGGUCCUGGAAUGGAUCAAGAACAACGGCGGGGCCGCAGCCAUGGAGAAGCUCAGCUCCAUCAAAUCCCAAAUGAUUUAUGAGAUCAUUGAUAAUUCUCAAGGAUUUUAUGUAUGCCCAGUGGAGCGCCAGAAUAGAAGCAGGAUGAACAUCCCAUUUCGCAUUGGCAACGCCAAAGGAGACGAAGCUUUGGAAAAGCGGUUUCUUGACAAGGCGGUAGAACUCAACAUGAUCUCCUUGAAGGGGCACAGGUCAGUGGGAGGCAUUCGUGCCUCUCUGUAUAACGCUGUCACAACCGAAGACGUUGAGAAGCUGGCGGCCUUCAUGAAGAAUUUCUUGGAGAUGCAUCAGCUGUGA
modifications: N1-methylpseudouridine
B1: in data set [1] (heart post-MI), the GSH/GSSG ratio entry is listed as “significantly increased”. Besides, in data set [1] (heart two days post-MI, DHE probe), the “levels of superoxide and other ROS” value is reported as “reduced”. For the same molecule, in data set [1] (two days post-MI), the NADH level entry was “increased” and the NADPH level entry was “increased”. Further, the “location of the increase in single color CMs in the heart” value in the data set on cardiomyocytes (CM) (1-month post-MI) is listed as “mainly in the infarct border zone”. In addition, the “% single color (green or red positive) CMs compared to total labeled CMs” value in the data set with cardiomyocytes (CM) (1-month post-MI, compared to Luc modRNA) is given as “increased”. For the same molecule, the “nucleation of the majority of single color CMs” value in the data set with cardiomyocytes (CM) (28 days post-MI) is on record as “mononucleated”. Further, the mice survival entry in data set [2] is “significantly improved”.
